Results published in US20220380801A1, “TRIPARTITE SYSTEMS FOR PROTEIN DIMERIZATION AND METHODS OF USE” (priority 2019, published 2022).

Columns and labels:
[1] = system: split Nanoluciferase (LgBiT/SmBiT) reconstitution in HEK293 cells; assay: Split NanoLuc reconstitution assay (NanoBiT); type: cell-based, human; conditions: 100 nM simeprevir over no simeprevir; LgBiT fused to the C-terminus of the PRSIM binding module
Description: The ability of the PRSIM binding molecules to promote dimerization of two proteins to which they are fused was assessed with the NanoBiT system (Promega) that measures the reconstitution of a split Nanoluciferase (NanoLuc) and the resultant luminescence upon supply of a live cell imaging Nano-Glo NanoLuc substrate (FIG. 8). In the NanoBiT system, one interaction partner is fused via a flexible linker to an 18 kDa fragment of NanoLuc termed LgBiT (for “large bit”) (SEQ ID NO: 16) and the other is fused via an equivalent linker to a 1.3 kDa peptide SmBiT (“small bit”) (SEQ ID NO: 17). LgBit and SmBiT have a low affinity (190 μM) for each other in the absence of interacting partners and will not reconstitute to form an active luciferase enzyme. Once fused to the interacting proteins of a CID and supplied with inducer, they will reconstitute, and luminescence can be measured. The NanoBiT system supplies two sets of control proteins fused to LgBiT and SmBiT: a set of constitutively interacting proteins PRKAR2A:PRKACA; and the FRB:FKBP12 pair whose dimerization can be induced with rapamycin.
To establish the optimal orientation of the HCV NS3/4A PR (S139A) and PRSIM components, constructs whereby HCV NS3/4A PR (S139A) was fused at either the N- or C-terminus to SmBiT (SEQ ID NOs: 18 and 19, respectively) and a parallel set of constructs for each PRSIM binding module fused to either the N- or C-terminus of LgBiT (SEQ ID NOS: 20-30 and 31-41, respectively). The NanoBiT kit (Promega) supplies a set of vectors enabling these constructs to be generated. DNA strings encoding HCV NS3/4A PR (S139A) and the PRSIM molecules were purchased from GeneArt and amplified via PCR with primers with extensions containing restriction sites compatible with the NanoBiT vectors and were cloned via Gibson assembly. All constructs were verified via Sanger sequencing of the entire coding sequence.
All NanoBiT screens were performed in adherent HEK293 cells cultured in 96-well plates. Cells enzymatically dissociated from a tissue culture flask were counted and plated at 2×10^4 cells/well in a white, opaque-bottomed 96-well plate (Costar 3917). The plates were incubated overnight at 37° C. with 5% CO2 to allow the cells to adhere. On day 2, plasmids were co-transfected with Lipofectamine LTX (ThermoFisher) at a final concentration of 100 ng/well (50 ng/plasmid, one encoding a SmBiT fusion, the other a LgBiT fusion). On day 3, wells were treated with 100 nM of the appropriate small molecule inducer (rapamycin (FRB:FKBP12) or simeprevir (HCV NS3/4A PR:PRSIM)) or vehicle control, and luminescence was quantified with an Envision plate reader immediately following addition of Nano-Glo Live Cell Substrate (Promega).

HCV NS3/4A PR (S139A) [2] = biological target: T1, HCV NS3/4A PR (S139A) (Hepatitis C virus subtype 1a, UniProt A8DG50, A1066T/I1043Q/I1044E/L1039E/L1040E/L1047Q/S1165A, form not given); assay: HTRF binding screen; conditions: in the presence of simeprevir
Description: scFv and Tn3 PRSIM binding molecules that were selective for the HCV NS3/4A PR (S139A) were identified in homogeneous time-resolved fluorescence (HTRF®) assays run in parallel to measure binding in the presence and absence of simeprevir. HCV NS3/4A PR (S139A), and serial dilutions of purified PRSIM binding molecules, were prepared in assay buffer (PBS containing 0.4 M potassium fluoride and 0.1% BSA). Streptavidin cryptate (Cisbio) was pre-mixed with either anti-FLAG XL665 (to detect the Tn3 molecules) or anti-c-myc XL665 (to detect the scFv molecules) in assay buffer. For each assay 2.5 μl of sample titration was added to 2.5 μl HCV NS3/4A PR (S139A) and 2.5 μl of pre-mixed detection reagents. Either 2.5 μl simeprevir or 2.5 μl of a DMSO blank were also added to each well. Background was defined using wells with zero sample addition. Assay plates were incubated overnight at 4° C., prior to reading the time resolved fluorescence at 620 nm and 665 nm emission wavelengths using a PerkinElmer Envision plate reader. Data was analysed by calculating % Delta F values for each sample. Delta F was determined according to equation 1.
% Delta F=((sample 665 nm/620 nm ratio value)−(background 665 nm/620 nm ratio value)/(background 665 nm/620 nm ratio value))×100 Equation 1
Selective binding molecules are defined as those scFv and Tn3 PRSIM binding molecules that bind to HCV NS3/4A PR (S139A) in complex with simeprevir and no binding to HCV NS3/4A PR (S139A).

HCV NS3/4A PR (S139A) [3] = biological target: T1, HCV NS3/4A PR (S139A); assay: Phage ELISA; type: binding; conditions: phage ELISA signal with simeprevir divided by signal without simeprevir
Description: Specific binding to HCV NS3/4A PR (S139A) was assessed by phage ELISA using single phagemid scFv or Tn3 clones induced for expression as described ((Osbourn et al. 1996)). Briefly, individual TG1 colonies encoding phage clones from round 3 and round 4 selection outputs, and negative control clones, were grown in 96 well plates at […] shaking at 280 rpm to log phase in media containing 100 μg/ml ampicillin and 2% (w/v) glucose. Helper phage was then added to each well and the plates incubated at […] for 1 hour, shaking at 150 rpm. Plates were then centrifuged at 4500 rpm for 10 minutes at room temperature and the media was removed and replaced with media containing 100 μg/ml ampicillin and 50 μg/ml kanamycin. Plates were then incubated overnight at 25° C., shaking at 280 rpm. The following day, phage preparations were blocked by adding an equal volume of 2×PBS containing 6% (w/v) skimmed milk powder (Marvel) to each well of the plate.
Biotinylated HCV NS3/4A PR (S139A) was used to coat 96 well streptavidin-coated plates at 5 μg/ml […] in the presence and absence of a 3-fold excess of simeprevir (5.6 μM). Coated plates were washed with PBS and blocked with PBS containing 3% (w/v) skimmed milk powder (Marvel) for one hour. Following this blocking step, the plate wells were washed three times with PBS, prior to adding the blocked phage preps (produced as described in the phage rescue section). Phage preps were incubated with the antigens for 1 hour at room temperature prior to washing three times with PBS/Tween 20 (0.1% v/v). Phage that bound specifically to the antigen coated plate were detected using an anti-M13 phage-HRP tagged antibody (GE Healthcare), followed by detection using 3,3′, 5,5′-Tetramethylbenzidine (TMB; Sigma). The detection reaction was stopped using 0.5 M H2S04 and plates were read using a […] at 450 nm. Fluorescent readings determined for each clone binding to biotinylated HCV NS3/4A PR (S139A) in the presence of simeprevir was compared to those binding in the absence of simeprevir, by dividing the signal observed in the presence of simeprevir to the signal observed in the absence of simeprevir.

Molecule	fold-change in luminescence [1]	HTRF max. signal (% delta F) (HCV NS3/4A PR (S139A) [2])	Binding fold change [(HCV protease + Simeprevir binding)/HCV protease alone] (HCV NS3/4A PR (S139A) [3])
PRSIM_33: Tn3 PRSIM binding molecule, SEQ ID NO: 7 (protein, PRSIM_33) RLDAPSQIEVKDVTDTTALITWYPPGRWYDDIWYFELTYGIKDVPGDRTTIKLARGDDVYSIGNLKPDTEYEVSLISWGPDRGDRAGSNPAKITFKTGL	9 fold	1704 % delta F	–
PRSIM_23: Tn3 protein specific for HCV NS3/4A PR (S139A):simeprevir complex, SEQ ID NO: 5 (protein, PRSIM_23) RLDAPSQIEVKDVTDTTALITWVDPRYDDIWWFELTYGIKDVPGDRTTIKLYLNDPYYSIGNLKPDTEYEVSLISYTGDSYSRSGSNPAKITFKTGL	31 fold	1573 % delta F	23.8
PRSIM_57: scFv specific for HCV NS3/4A PR (S139A):simeprevir complex, SEQ ID NO: 12 (protein, PRSIM_57) scFv: QVQLVQSGAEVKKPGSSVKVSCKASGGTFSSYAISWVRQAPGQGLEWMGGIIPIFGTANYAQKFQGRVTITADESTSTAYMELSSLRSEDTAVYYCARHTNYITVFDYWGQGTLVTVSSGGGGSGGGGSGGGGSAQSVLTQPPSASGTPGQRVTISCSGSSSNIGSNTVNWYQQLPGTAPKLLIYSNNQRPSGVPDRFSGSKSGTSASLAISGLQSEDEADYYCAAWDHHWEQVVFGGGTKLTVL	14 fold	1076 % delta F	15.7
PRSIM_75: scFv PRSIM binding molecule, SEQ ID NO: 15 (protein, PRSIM_75) scFv: EVQLVQSGAEVKKPGSSVKVSCKASGGSFNSYTLDWVRQAPGQGLEWMGGIIPVFGSPNYGQKFQGRVTITADESTSTAYMELSSLKSDDTAVYYCARGLVYQPLDSWGRGTLVTVSSGGGGSGGGGSGGGGSAQAVLTQPSSASGTPGQRVTISCSGSSSNIGSYTVNWYQQFPGTAPKLLIYSNTQRPSGVPDRFSGSKSGTSASLAISGLQSEDEADYYCAAWDDSLNGWVFGGGTKVTVL	–	1030 % delta F	6.9
PRSIM_67: scFv PRSIM binding molecule, SEQ ID NO: 13 (protein, PRSIM_67) scFv: EVQLVQSGAEVKKPGAAVRISCKTSGYVFTSYYVHWVRQAPGQGLEWMGVINPSGGNTNYAQKFQDRVTMTRDTSTTTVYMELSSLMFDDTAVYYCAKRDYGGPLANWGRGTLVTVSSGGGGSGGGGSGGGGSALSYELTQPPSVSEAPRQRVTISCSGSSSNIGNNAVNWYQQLPGKAPKLLIFYDDLLPSGVSDRFSGSKSGTSASLAISGLQSEDEADYYCAAWDDSLNGLVFGTGTKLTVL	–	1708 % delta F	12.7
PRSIM_04: scFv PRSIM binding molecule, SEQ ID NO: 11 (protein, PRSIM_04) scFv: QVQLVQSGAEVKKPGSSVKVSCKASGGTFSSYAISWVRQAPGQGLEWMGGIIPIFGTANYAQKFQGRVTITADESTSTAYMELSSLRSEDTAVYYCARGMAHFYQFDLWGQGTLVTVSSGGGGSGGGGSGGGGSAQSVLTQPPSASGTPGQRVTISCSGSSSNIGSNTVNWYQQLPGTAPKLLIYSNNQRPSGVPDRFSGSKSGTSASLAISGLQSEDEADYYCAAGDHDHEHVVFGGGTKLTVL	–	1055 % delta F	30.3
PRSIM_72: scFv PRSIM binding molecule, SEQ ID NO: 14 (protein, PRSIM_72) scFv: QVQLVQSGAEVKKPGSSVKVSCKASGGTFSSYAISWVRQAPGQGLEWMGGIIPIFGTANYAQKFQGRVTITADESTSTAYMELSSLRSEDTAVYYCARGMAHFYQFDLWGQGTLVTVSSGGGGSGGGGSGGGGSAQSVLTQPPSASGTPGQRVTISCSGSSSNIGSNTVNWYQQLPGTAPKLLIYSNNQRPSGVPDRFSGSKSGTSASLAISGLQSEDEADYYCAAGDHDHEHVVFGGGTKLTVL	–	1107 % delta F	12.5
